# Test results: a protein production outcome set (Wang et al. 2014)
# Assay: label from the status in PepcDB records
row,Sequence,protein production
1,MTEMQSLRHRLIRQPGPVSGECWIAFFDGVAHPVLIKNAQGQVIFANRAACDLLGRDRSGLAGGAEHELVAGTQAEQIASFDAEAMRRGSVSAEQEMPGPRGVRRFLVSRRPAGEHLVVTFFEITDLRETEGVLRQREAHLRNLLELHPVAPFSFTADGVLSDLSDRLVAITGLPAGTRHVDAWWAAMHPCDRRDLRRAWIRSVRGGQSFDAEHRLQMPDGAYRWFRARIVARPRDQDQRVDRWFGIIEDVHERRTTVEQLRESEARFRAFADDAPVMIWVTDTEGRNVFVSRSWLGATGQSLDEALGTGWIDAVHPDDRDATAAITREAMRRRIAYTNEFRIRRKDGGWCWVIDVGHPRLLADGTFIGYIGCCVDISARRQAEDDRVMAQLQVFHMARHDMLTGLPNRHYFGDCYQEAVASLAPERSVAVLMLDLDGFKTVNDTRGHPVGDQVLCEVANRLRTSVRSTDTVARLGGDEFAVIQTPIRSEQEACDLARRLIAAISKPFDLEGAVPEVGASVGIAFARGHGDSAEEIMRYADVALYAAKQAGRGTFRVFDEATDTHLQSRQKMKAALRAALGLGELSVFYQPLIGLRDGQVTACEALMRWHRKGAGWITPDQFIPLAEEAGLIGDMGDWVLHEACAQAARWPDSVSVAVNLSPLQFHGGALVDQVASALRASGLPPERLQLEITESVLLDPTDRNIGVLQDLRALGAKIVMDDFGTGYSSLGYLRSFPFDKIKVDRSFIRDLPDAREALAILKAVAGLGRSLDMRTTVEGVETQAQLDCAIAEGVDEAQGYFFSRPLPAPGIASFISGCLPKRRIQPATGDAAT,failed
2,MAGCRTNAKGNAMPISIRIGNQDLTVDVSSLGAEMQALTSGDGRSWLWTGDAAFWTGRSPILFPIVGKAPDDKIAIDGTVYPMAQHGFARRSEFALAASTETMCRFELAASEATRAVYPFDFQLAVVHAVEGRALTVTAEVTNRDPKPMPFGLGFHSAFAWPLPGASGRDHIVTLDNKGEPALVRLEGGLINPAPLPSPFNAGRLVLDHSMFEQDAMIFPDGAGEGLAYGSEGGPAMRFHFKNLPNLALWTKPGAPFLCIEPWHGTAAEAGASSELSKRPSTTILAPGAVASFAFTVEIPQ,failed
3,MEANSGGGGGAEGGRAVTGGGGGGGGSDVELVSKTLQVEHKLFYFDLKENPRGRYLKISEKTSATRSTIIVPSSGISWFLDLFNYYVNSEEHELFSKELQLDSKVFYFDIGENRRGRFLKVSEASVSRNRSTIIVPAGSSPDEGWAAFRNILAEIHEASGLFVMPNQKPSDGQEHLVDDVGAGFIPGHGSQQPSSSEHNVDRTIDSPGSDRSSIILPLSGLKQFHEVIGHFVEITKDKIEVLILLEDGNFQSSNHLNLATSSRLPDRGVQ,failed
4,MNLLTVSTDLISIFLFTTLFLFFARKVAKKVGLVDKPNFRKRHQGLIPLVGGISVYAGICFTFGIVDYYIPHASLYLACAGVLVFIGALDDRFDISVKIRATIQAAVGIVMMVFGKLYLSSLGYIFGSWEMVLGPFGYFLTLFAVWAAINAFNMVDGIDGLLGGLSCVSFAAIGMILWFDGQTSLAIWCFAMIAAILPYIMLNLGILGRRYKVFMGDAGSTLIGFTVIWILLETTQGKTHPISPVTALWIIAIPLMDMVAIMYRRLRKGMSPFSPDRQHIHHLIMRAGFTSRQAFVLITLAAALLASIGVLAEYSHFVPEWVMLVLFLLAFFLYGYCIKRAWKVARFIKRVKRRLRRNRGGSPNLTK,failed
5,MTDLSARDRLAPDSSPRLLALASIALEAGALARQSLRRRHVDQMVSKGPRDYQTEIDVAVERLIVAGVSEAFPDHAIQGEEETGNRTGGPDAPVIYIDPIDGTTNFAWGLPHFGMTIAIAEQGKITCGVVYDSMLDELFSAEIGKGATLNGEKLRCADVADVQNVLVGAGLPVPGQVKSVDEELYHRALRRLMDNTAGVRRLGSAALSIAYVACGRLDGFFEDGLQVHDYGAAALILTEAGGVVTGFGGMPVDAGGGILAASPALHPWLLAGFQPGMDR,failed
6,MAIIASNNSWDLYQLAVVILNYRTPQLVVDCLASLVSQIDPQTQQVIVVDNASGDDSVEEIEKAIANNNWQDWVRLLPSDVNGGFSAGNNLGIQAIRAENYLLLNSDTIVRPGAIQTLLVALEQYPEAGLFSPRLEWPDGTPQISCFRDHSPLSEMIDGARTSVITKLLQPFDVPIPVTEQSFEPQWTSFACVLIRRSVVEQIGLMDDGYFMYYDDIDYCRRARQAAWKIRYIPQASVVHLRGGSGSVKSDVASRKRPRPYLYASRSRYFAKFYGPLGLALANLGWLGGWGIAALREILGQKEPHTCDRQWQDIWFQWRQPLKPYRPELEHHHHHH,not failed
7,MRVGVLGAKGKVGATMVRAVAAADDLTLSAELDAGDPLSLLTDGNTEVVIDFTHPDVVMGNLEFLIDNGIHAVVGTTGFTAERFQQVESWLVAKPNTSVLIAPNFAIGAVLSMHFAKQAARFFDSAEVIELHHPHKADAPSGTAARTAKLIAEARKGLPPNPDATSTSLPGARGADVDGIPVHAVRLAGLVAHQEVLFGTEGETLTIRHDSLDRTSFVPGVLLAVRRIAERPGLTVGLEPLLDLH,not failed
8,NDPDADRFAVAARKADGEYQMLTGDQVGSLFGHYLLSQTDAHRQLVGNTIVSSSLLSKIAAAHGARYYQTLTGFKWLTNVAMQEQTEQHQFLFAYEEALGYTIGSTVWDKDGLSALVAFAQLAAELNAQGKTVWDQLEALYRQHGLHVN,failed
9,MSRDPTYTINEHDLSFADGRFYVTFKADKSSETVRLNSSCLGNTIIKKLQVEDDNTMHDFVKPKVTTQQAFGLAQQVKELDLQLKDPKSDLWGKIKFNNKAMLVEYANKEMSSAIAQSAEQILLQVKSIDDERYSKFEQTLNGIKQTVKSESVESARTQLASMFDSRISGLDGKYSRLSQTIDSLSSRLDDGVGNYSTLSQKVSGIDLRVSNAANDVSRLSQTAQGLQSQITNANQNYSSLSQTVQGLQTTVRDNQSNATSRINQLSDLISTKVSKGDVETTIAQSYDKIAFAIRDKLPASKMSGSEIISAINLDRSGVKITGKNITLDGNSYISNAVIKDAHIANMDAGKINTGYLNANRIATEAITGEKIKMDYAFFNKLTANEGYFRTLFAKDIFATSVQSVTLSASKITGGVLAATNGASQWDLNNANMTFNRDATINFNSKNNALVRKDGTHTAFVHFSNATPKGYRGSALYASIGITSSGDGIDSASSGRFAGLRSFRYATGYNHTAAVDQTELYGDNVLIADDFNINRGFKFRPDKMEKVLDMNDLYAAVVALGRCWGHLANVGWNTAHSNFTSAVSRELNNYITKI,failed
10,MDTSRLRPTSPLVRQAAACLDAGEADHADVLLDLHLSRHPEDSAGLILFGLTRVALGRPLEAEQPLRRALALDPIDDPFHARAVCALVDVLKAQGRMAEVSEVLERAGDVAPMNAVFPRMLGAHYRALGQVGAAITAARRAVAVESADGENWRGLAATLLGGAPGEALEALERAKTCGDDGADWWNIRGVALAALGEGEAAREAFKNAILRDGAAPMAWTNLGNLEIRAARSADALERAVEAYGQAIRRAPDSFEAHNNLAQALRDLGRRDEALVHAERAASLRPHDVTVLNTQANILRGLRRVDEAVAILERALACDGRSAETHSNLGLALLAAQDRQRAEEHFRKAAALAPDCVDIIVNLACFLIHINAGKEVLGVLEPALARFPGDVGLLATLGLHYFQENAYEDCATVFETVLAKKPDHVEARASLGVVRWSQGRLVESLALAQSIREDFPEDIRTLFLLGCVHSDLMENASALEVFDLAVEKGGERVPPFHYSNCCFSFHYVEAMEKDDLFARHRRWDALYGAGATELSDVTHHNTRDPERRLRIGYVSPDFRRHSVAYFFLPLVGAHDRAAVEVTCYSLSTLTDQMTDLIREGCDRWRDITTLPAEKAAERVREDEIDILVDLSGHTANNGLSIFALKPAPVQVTYLGYPNTTGLSAIDYRLTDGFADPLGVDEDPASETLWRLPRSFLLFDEVPGLPDPAPPPVLSRGTITFGSFNNMAKVNRGCVAVWKRILDAVPGSRLLLKAKGFRDPATAKVLIERLIDWGVDPEQVSYAPYAKNLMEHVAVYAEVDIALDTFPYNGTTTTFEALHMGVPVIGLRGHRHSGRVGASILGNLGLADRLLGEDVDDMVAKAVALAGDLEGLMRMRAGLRERLRASPLQDGPGFVADLEGAYRAMWRRWCAGPPTFHRQPKNGMWAVEEMEDAIEPVLG,failed
11,MMNNSEGLKSFQQSLADLPQWVSERLLQQINQLTNYEPVIGIMGKTGVGKSSLCNALFAGDISPVSDVAACTREPLRFRLQVGDRYITLMDLPGVGESGARDTEYAALYREQLPRLDLVLWLIKADDRALTVDEHFYHQVIGEVYRHKVLFVISQSDKAEPTSGGGQLSTAQKQNISRKICLLHELFQPVHPVCAVSVRLQWGLKVMAERMIKCLPREATSPVVSQLHPSFRTTVVREQARSDFGETVGAVLDSISAFPLIPAPVRAVIQAVRTTVVSVARAVWDFFF,failed
12,DHSLAIIEFDLSSRIIEVNQNYLDYFGYQRDEVIGQYHLMFCHPGYANSDEYQKIKTSLLAGQSLEGRFERIHKDGSRVWLAAIYQPVSGPDGSVTRIVKIAKNIT,failed
13,MDPLVSFFDGMAQASWLRPVHDRLKKGTGSWANRAVLDVGCGTGRLLARGVHEAAHLAGVDLSKQMVLATEERLHEHKQCGRLTVVQGDAYDLPFADESFDVCLSTCVMFLLPEPERGMKEMIRVLNGAGVIGMLNPTNKMNHAAAKAYCKKSGITGFEEKTLLQWSNVSTRRHRYTAEQLTHFFKQHGAWVVTHELVLDGLAVVTVASWNKLEHHHHHH,failed
14,IEVSYHTPDGVPGVVMTTPKLDDGTPFPTLYYLTEPRLTAEASRLEVAHVMKWMTDRLHSDEELRQDYERAHEYFLAKRNALEDLGTDFSGGGMPDRVKCLHVLIAYALAEGPDHFRLGTEAVALA,failed
15,MTWKPNVTVAAVIEQDDKYLLVEEIPRGTAIKLNQPAGHLEPGESIIQACSREVLEETGHSFLPEVLTGIYHWTCASNGTTYLRFTFSGQVVSFDPDRKLDTGIVRAAWFSIDEIRAKQAMHRTPLVMQCIEDYHAGKRYPLDILQYYD,not failed
16,GGEVHAAWHLRYAGRDFFVKCDERELLPGFTAEADQLELLSRSKTVTVPKVWAVGADRDYSFLVMDYLPPRPLDAHSAFILGQQIARLHQWSDQPQFGLDFDNALSTTPQPNTWQRRWSTFFAEQRIGWQLELAAEKGIAFGNIDAIVEHIQQRLASHQPQPSLLHGDLWSGNCALGPDGPYIFDPACYWGDRECDLAMLPLHTEQ,failed
17,APSQGATANAETQTTIPLGDTSQNALDWPGVYEGVLPCASCEGIQTTLTLQADNSFELKSIYLGKDESIFKVAGKFDWDSNGSKITLSDGSKYLVGENQLLMLDTEGNRITGGLAEHYILKKKGM,not failed
18,DQEPPLYVNENDIFTSPTRIEATLNGLYAAIKNTGTKSLMGGKSYLVFDNRGDDVINISNNLVTLFNTYNMNVGITDAENADTWTYAYLAINKVNTFLQSLEGAREVAGENYDRYVQEAKFVRALAYYYLNNLYPTPYSVNPDAKSVPLRLTAEAGTENNNMPRSTVKQIYEHILSDLENISALDTEVNTYTGVTHATQAAANMLKMRVYMAMNEWDKAITAGELVTGYSLPEDVTLIYKAPYFSQESIFSLPMADTNIPNTQQSLAEYYYDGKIMLIDTKSGIMSKPDYSLATDKRIIAFKGEKDLLMKFTDAKTKLQWVPIFRYAETLLDLAECYANKAGGEATAKSLLKQVRGRSVDAATDPLNIDNLSGDALKEAIYNEKRLEFIGEGIRGIDIMRRGEHFIKVGENETINVGPSDEKYTWPIPQVELLLNKDINK,not failed
19,GRPDGPVRTKKLKRGRPGRKKKKVLGCPAVAGEEEVDGYETDHQDYCEVCQQGGEIILCDTCPRAYHLVCLDPELDRAPEGKWSCPHCEKEGVQ,failed
20,MKIRSADASDLDSLLRLNYQIGVMHFENAPESFVKPSSEEKEFLLKALNDQSRLFLVAEISGDVVGFVTATVTQNEAIPFLVKTPICRVGTIVVDENARVSGIGTQLMARCNDWAKSQGAEQIRLEVMAFNKSAQSFYVKLGFEEQSKTMWKTVN,failed
